Publication PMC9170038

Molecular target: MS2 coat protein, dlFG mutant (Escherichia phage MS2, UniProt P03612, del68-81insG)
Experiment: 4 mM Mg2+; no ligand; RNA-MaP array; 100 mM Tris-HCl pH 7.5, 80 mM KCl, 4 mM MgCl2, 0.1 mg/mL BSA, 1 mM DTT, 0.01 mg/mL yeast tRNA, 0.01% Tween-20; protein 1.5 nM to 3 uM; 37 C (Table S3)
Details: chain copies: 2; label: tethered by stalled RNA polymerase

B1: Eterna 7734981 (Same State - FMN A) (ssRNA)
RNA: UGUGAGCUGUCGACAAAAGUCGACUAAAGCGAGGAUAUGACGAAAGUCAGAAGGCGUCAAUAAUGGAGUGAUGUUCCUGCUCACU
- Kd: > 3000 nM

B2: Eterna 7709739 (Same State - Tryptophan B) (ssRNA)
RNA: UAUAUAGUGACGGCCGCCACUAUAUUAAUGUUUAGGUUAGAGUGAUGUUUUGAUUAAUAUUUUUAUAGGACCGGGUUAUAUGUUA
- Kd: > 3000 nM

B3: Eterna 7707528 (Exclusion - Tryptophan A) (ssRNA)
RNA: GGGAUGUAGUGAUGUUAUAUUGGAUGUAGACGAGGACCGGUACGGCCGCCACUCGUGAUGGCUGCUAGCACGUUUCGAUGUUUGC
- Kd: > 3000 nM

B4: Eterna 1752 (Same State - Tryptophan B) (ssRNA)
RNA: CUUUUACAGUCGGCCGCCACUGACAGCACUUCAAAGACAGUAUAAGGGUAGUGAUGUUACUUUAUCAGGACCGGGACUACCUAAC
- Kd: > 3000 nM

B5: Eterna 7697396 (Exclusion - Arginine B) (ssRNA)
RNA: UGAUAGGACAGAAGGAGCGGGCUAGUCAAAGACUAGCAAACGUUAAUAACAGGAGUGAUGUUCCAGGUAGGUCGCUGUCCUAUCU
- Kd: > 3000 nM

B6: Eterna 7670795 (Exclusion - Tryptophan B) (ssRNA)
RNA: GGAUAGGACACGGCCGCCACUACCUAGGAUACUAGCAACAUUUGGGUACGUGAGGAUCACCCACGUAGGACCGGGUGUCCUAUCG
- Kd: 12.4 nM

B7: Eterna 7653809 (Same State - Theophylline B) (ssRNA)
RNA: UGUAUGUGAUUUGAUACCAGACCAGCUGGUGGUACUUGAGGAACACCCAAGUAGGUUUGGGUCCCUUGGCAGCAAAUCGCAUACU
- Kd: 177 nM

B8: Eterna 6401867 (Inverted Exclusion NG 1) (ssRNA)
RNA: CCGACGCCUCAGAAGGCACUCGCAUAAUGCGAGUGAGGAUAUGAGGAUCACCCAUAUCAACGUCGGAGUCACCGAAACGGUGAC
- Kd: 11.1 nM

B9: Eterna 6373941 (Exclusion NG 3) (ssRNA)
RNA: GUCACGGUUAAUUCCGUGACGCGCAAACCUUGAGGAUCACCCAAGGAUAUCGACGUCAAUGACGUCGAGAAGGUGGUUGAGCGC
- Kd: 53.8 nM

B10: Eterna 7652698 (Same State - Arginine A) (ssRNA)
RNA: CGGUCGGUCGGCCGGUGAUUAUGGGAUGAAGGAGCGUGGGAAGCUACAGGUAGGUCGCAUCCGAAACAUCACGAUCACGGAUGUU
- Kd: 74.9 nM

B11: Eterna 6381351 (Inverted Exclusion NG 3) (ssRNA)
RNA: CGAUAUAUGAAGGGCGAAAGCCCACAUGAGGAUCACCCAUGUAGAAGGCGGGCCGCAACGCGGCCCGAGGAUAUAUAAUAUACA
- Kd: 7.35 nM

B12: Eterna 7662739 (Exclusion - Arginine A) (ssRNA)
RNA: CGCGGGCCACAUGAGGAUCACCCAUGUGAAGGAGCGGCGAAUAAGCCAGGUAGGUCGCGCAUGAAUAAAUCAUGUAGGUGGCGAA
- Kd: 18.3 nM

B13: Eterna 6083193 (Exclusion 6) (ssRNA)
RNA: CCAAGUUCGUAGGAUAUAGAUGCCUUAGGGCAAUUAGAAGGAUGGACAUGAGGAUCACCCAUGUCGGAUUCUGU
- Kd: 15.8 nM

B14: Eterna 6395528 (Inverted Small Loop Exclusion NG 1) (ssRNA)
RNA: ACAUGGUAGUAGAAGGGUAUUACUUUAGAUACAACCAUUUGUUUAGUUUAUACAGGAUAUGCUUACAUGAGGAUCACCCAUGUU
- Kd: 9.28 nM

B15: Eterna 6453269 (Small Loop Same State NG 3) (ssRNA)
RNA: CAGCGAUAGCUAAAGUAUCUAUCAGAGGAUAUUCAUGAAACAUGAGGAUCACCCAUGUGAAACUGGGAGAAGGCUGAUAGAUAG
- Kd: 14.2 nM

B16: Eterna 12668 (Exclusion 3) (ssRNA)
RNA: UAAAAGCUAGGAUAUACAUGAGGAUCACCCAUGUCACGGGUCCACUCAUCCUAUACGUGUAGAAGGAGCGACCC
- Kd: 17.4 nM

B17: Eterna 11866 (Sensor v3, turn-off variant 2) (ssRNA)
RNA: CUUAGCCUAAAAUCACGCAAGCUUUCUGCUUGUCUUAAGACAUGAGGAUCACCCAUGUCCGGGCUGAACUUAUGGAA
- Kd: 18.5 nM

B18: Eterna 6443967 (Same State NG 2) (ssRNA)
RNA: CUAUAGAUAUGAGGAUAUGUAUAUCCAACAUGAGGAUCACCCAUGUUGAUGAUCACGUAUGUAAAGCAGAAGGCAUAUCUAUAG
- Kd: 8.38 nM

B19: Eterna 6453699 (Inverted Same State NG 2) (ssRNA)
RNA: AGUUUGUUUGAGAAGGUGAAGUGGAAACAUGAGGAUCACCCAUGUAUUAGGAAGCCUGGUUUUGUCAAGGAUAUCGGGUAAACA
- Kd: 15.2 nM

B20: Eterna 6451659 (Inverted Exclusion NG 1) (ssRNA)
RNA: GCGUGGUUCUAGAAGGUGCUAGCGAUAAGCUAGCAAGGAUAUAGACAUGAGGAUCACCCAUGUCUUAGUGAAAUGGACACACGC
- Kd: 4.84 nM

B21: Eterna 6033767 (Exclusion 3) (ssRNA)
RNA: AGGGUAGUAGGAUAUACAUGAGGAUCACCCAUGUUUCCAUUACGUGACUGGUCCUAGUGUAGAAGGGCUAGCAC
- Kd: 17 nM

B22: Eterna 6080103 (Exclusion 1) (ssRNA)
RNA: CCCGGACAUGAGGAUCACCCAUGUUAGGAUAUCUAGAGGAUCUAAACCGAAUAGAUCCAGAGAAGGGAUGUGGG
- Kd: 34.3 nM

B23: Eterna 15533 (Exclusion 1) (ssRNA)
RNA: UCUCGACAUGAGGAUCACCCAUGUCAGGAUAUUGUGUUUGAGGUUUUUUACCUUUUGACAAGAAGGGAUGUGUG
- Kd: 29.8 nM

B24: Eterna 5862108 (Exclusion NG 1) (ssRNA)
RNA: UCACGGGAUUGAGGAUAUAUAUUAAUUUUUUUUAUAGAAGGCAAAAUGUUAGAUUAUUCACUAUACAUGAGGAUCACCCAUGUU
- Kd: 25.5 nM

B25: Eterna 12641 (Exclusion 3) (ssRNA)
RNA: AAUAGCUAAGGAUAUACAUGAGGAUCACCCAUGUAAAACACUACUUGGAACCGCCUCGGUAGAAGGUAGAAAAU
- Kd: 20.6 nM

B26: Eterna 6461519 (Inverted Same State NG 1) (ssRNA)
RNA: GUGCCUAACUAGAAGGCCCAAUGCAAAGCAUCGGGAGGAUAUGGGUUUAAUAAAUAAACAUGAGGAUCACCCAUGUGGCACAAA
- Kd: 46 nM

B27: Eterna 7732393 (Same State - FMN B) (ssRNA)
RNA: AUUUUUUUGUCAGGAUAUUAGUGUGGGUUUGGUUUGUUAGUGAUGUUGAUAUUUGUUUUAUGUAUUUAAGAAGGGAUUUAGCGGU
- Kd: > 3000 nM

B28: Eterna 5978372 (Brourd's mod of Exclusion 4) (ssRNA)
RNA: GCGUCUCCUGUCAGGAUAUGCACCGGCUCGCCGGCGUAGAAGGGACAUGAGGAUCACCCAUGUGGUCUACACUU
- Kd: 84.3 nM

B29: Eterna 9406 (Exclusion 4) (ssRNA)
RNA: UUCAUGUGAGGAUAUGUGAUCUGCUUUCUGUUUAGAUGAUCACAGAAGGCACAUGAGGAUCACCCAUGUAGAUC
- Kd: 141 nM

B30: Eterna 6145156 (Exclusion NG 1) (ssRNA)
RNA: UUAAAUCAUGUAGGAUAUGCAUGGCGAAGCUACGCAGAAGGACAUGAGGAUCACCCAUGUUAUAGCUACCGAAUAAGGUGGCAA
- Kd: 91.1 nM

B31: Eterna 6406790 (Exclusion NG 3) (ssRNA)
RNA: GUACUGAAGCUUUGCUUUAGUCGUACAUGAGGAUCACCCAUGUAGGAUAUGGUAGGCUUUGCUUACUAGAAGGAUAGAGUGAUU
- Kd: 54.4 nM

B32: Eterna 6430560 (Small Loop Same State NG 3) (ssRNA)
RNA: ACUUAAAUACCCAAAAGUCGGGCGGAGGAUAUGGAGCUUCCACCACAUGAGGAUCACCCAUGUCUUCAGAAGGCCGCCCUUGGA
- Kd: 100 nM

B33: Eterna 7612197 (Same State - Arginine B) (ssRNA)
RNA: ACGUAAAGCAGAAGGAGCGUCUUCAAUUUACAUGAGGAUCACCCAUGUUUUGUGAUCAUAUGACAGGUAGGUCGCUGAAGUACGA
- Kd: 127 nM

B34: Eterna 7692390 (Exclusion - Arginine A) (ssRNA)
RNA: AGUAGGAAACUACAAUCCUCUCUUACUGAAGGAGCGCGUGAAAACGCAGGUAGGUCGCAGGAUUGGAGAGUGAUGUUCUCCUUAA
- Kd: > 3000 nM

B35: Eterna 7734974 (Same State - Theophylline A) (ssRNA)
RNA: AAAAUAAAUAAAACACGUAACAUGAAGGAUACCAGACAGGAAACUGUCCCUUGGCAGCCUCUACAUGAGGAUCACCCAUGUCGUG
- Kd: 246 nM

B36: Eterna 6124182 (Same State NG 2) (ssRNA)
RNA: GUAGCAUGAUUAGGAUAUUCAGCGAAUAGAUUGACAUGAGGAUCACCCAUGUGGCGAAAGCCGAGGGAGAAGGGAUGAUGCUAC
- Kd: 165 nM

B37: Eterna 6128104 (Same State NG 3) (ssRNA)
RNA: GCUCGAUGAGCUGUCUACAUGAGGAUCACCCAUGUAGAUGGGCAGGAUAUUUACGUGCUUUAUGUAGAGAAGGGCCCAUCGAGC
- Kd: 191 nM

B38: Eterna 6461477 (Inverted Same State NG 1) (ssRNA)
RNA: GCUGCAUGUGAGAAGGCGAUCAUGAAACAUGAUCGAGGAUAUCAUGUAAACAUGAGGAUCACCCAUGUAUGGGUAUUAAGCAGC
- Kd: 272 nM

B39: Eterna 12242 (Exclusion 3) (ssRNA)
RNA: GACUAGGCAGGAUAUACAUGAGGAUCACCCAUGUGUCUGCGAUAGGCACGUGAUUACUGUAGAAGGGCCUUGAC
- Kd: 330 nM

B40: Eterna 6450941 (Small Loop Exclusion NG 3) (ssRNA)
RNA: UGGACCGAGCUAUCGGUUGACUGGGAGGAUAUGACAUGAGGAUCACCCAUGUGGGAUCUAAAUUGUCAGAAGGCUCGUUCUGGG
- Kd: 264 nM

B41: Eterna 6402672 (Exclusion NG 2) (ssRNA)
RNA: UGGCCCGCCGGAGGAUAUCUACUCUGUGGUGCACUGCGUUUGCAAUACAUGAGGAUCACCCAUGUAGAGAAGGCCGAGGGCACA
- Kd: 269 nM

B42: Eterna 6449046 (Small Loop Same State NG 1) (ssRNA)
RNA: AAUAAACACACAGGAUAUAGCAUCGUCGUUGCGAACUUAGCGACGACGAUGCUAGAAGGGUGAACACAUGAGGAUCACCCAUGU
- Kd: 195 nM
